According to patent publication US20240336696A1 (PXRADIA MAB TECHNOLOGIES, published 2024):

Biological target: T1, CD20 on human B-cell lines (JOK-1, Raji, Ramos) (human, UniProt P11836 1-297)
T1 sequence (looked up): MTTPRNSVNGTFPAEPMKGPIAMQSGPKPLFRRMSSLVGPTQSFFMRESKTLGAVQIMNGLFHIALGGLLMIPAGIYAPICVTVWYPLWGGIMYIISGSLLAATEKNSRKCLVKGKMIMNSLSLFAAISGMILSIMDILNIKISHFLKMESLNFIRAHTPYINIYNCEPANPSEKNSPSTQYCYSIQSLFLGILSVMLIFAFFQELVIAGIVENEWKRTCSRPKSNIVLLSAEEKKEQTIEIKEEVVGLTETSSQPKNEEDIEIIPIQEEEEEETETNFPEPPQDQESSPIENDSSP
Assay: cell-based or functional assay

B1: chRituximab-HD (chimeric HD antibody identical to chRituximab except for the addition of the HD peptide rs-T15) (antibody, human IgG1, kappa)
heavy: not shown
light: QIVLSQSPAILSASPGEKVTMTCRASSSVSYIHWFQQKPGSSPKPWIYATSNLASGVPVRFSGSGSGTSYSLTISRVEAEDAATYYCQQWTSNPPTFGGGTKLEIKRTVAAPSVFIFPPSDEQLKSGTASVVCLLNNFYPREAKVQWKVDNALQSGNSQESVTEQDSKDSTYSLSSTLTLSKADYEKHKVYACEVTHQGLSSPVTKSFNRGEC
percent of apoptotic cells against chRituximab, Raji cells, 5 µg/mL: 2.5 fold
